Measurements from patent US20240181125A1 (WASHINGTON UNIVERSITY, published 2024).
Primed or numbered codes have the meaning given here. Ends that are not written are not given here. FITC′ = not defined here

Legend:
[1] = target: T1, TGFβ receptor II (TβR2) on human dermal fibroblasts (HDFs) (human, UniProt P37173 23-567); assay: immunofluorescence of HDFs with anti-TβR2 antibody and FITC signal of the peptide
T1 construct: whole, on cells; Endogenous receptor on HDFs cultured at 4.5 g/L glucose; also called TGFβRII

[2] = target: T2, TGFβ receptor II (TβR2), R&D, coated on ELISA plate; assay: ELISA-like binding assay, receptor coated on plate, FITC fluorescence of bound peptide
T2 construct: Bought protein (R&D), coated at 20 nM; also called TGFβRII; TβRII
Excerpt: We synthesized a peptide […]-FITC (PTβR2I), based on the sequence from a phage display library that binds specifically to […] and interactions between TβR2 and TGFβ1.63-65 We first examined the specific binding of PTβR2I with TβR2 using an ELISA-like binding assay. TGFβ receptor I (TβR1), TGFβ receptor III (TβR3), and IgG were used as controls. […] This finding was further validated on the cellular level. We used human dermal fibroblasts (HDFs) to study the binding affinity of PTβR2I to TβR2 under a glucose level of 4.5 g/L, which mimics the hyperglycemic conditions of diabetes. With PTβR2I added, the HDF binding sites on HDF of TβR2 were occupied, so the TβR2 could not be detected by immunofluorescence (FIG. 5F).
To test the ability of PTβR2I to bind to TβR2, a binding assay was performed. TβR1, TβR3, and IgG were used as controls. In brief, ELISA plates (Costar) were coated with 20 nM of TβR2 (R&D), TβR1 (R&D), or IgG (R&D) and incubated at 4° C. overnight. The plate was blocked with Tris-buffered Saline (TBS) containing 5% bovine serum albumin (BSA) for 1 hour. Then PTβR2I (0.5 μg/mL) was added to the plate and incubated for 2 hours. The fluorescence intensity was read by a microplate reader (Molecular Devices) with a predefined wavelength (excitation/emission=485/535 nm).

T2 sequence (P37173 whole entry): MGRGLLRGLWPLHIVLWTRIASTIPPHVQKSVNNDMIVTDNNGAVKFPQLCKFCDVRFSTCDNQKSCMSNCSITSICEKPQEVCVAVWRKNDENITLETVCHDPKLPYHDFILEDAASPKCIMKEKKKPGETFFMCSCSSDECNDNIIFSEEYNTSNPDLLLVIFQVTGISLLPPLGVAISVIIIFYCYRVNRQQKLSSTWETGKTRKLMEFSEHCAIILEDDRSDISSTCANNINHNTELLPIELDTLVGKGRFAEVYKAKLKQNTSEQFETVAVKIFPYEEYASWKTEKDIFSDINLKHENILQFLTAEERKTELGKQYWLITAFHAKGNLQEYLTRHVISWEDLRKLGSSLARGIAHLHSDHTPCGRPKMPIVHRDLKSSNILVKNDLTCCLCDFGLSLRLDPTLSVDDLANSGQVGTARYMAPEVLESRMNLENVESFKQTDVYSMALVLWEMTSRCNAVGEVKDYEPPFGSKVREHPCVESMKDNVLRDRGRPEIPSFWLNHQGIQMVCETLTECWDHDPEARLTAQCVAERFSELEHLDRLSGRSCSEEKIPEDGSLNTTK
T1 sequence (P37173 23-567): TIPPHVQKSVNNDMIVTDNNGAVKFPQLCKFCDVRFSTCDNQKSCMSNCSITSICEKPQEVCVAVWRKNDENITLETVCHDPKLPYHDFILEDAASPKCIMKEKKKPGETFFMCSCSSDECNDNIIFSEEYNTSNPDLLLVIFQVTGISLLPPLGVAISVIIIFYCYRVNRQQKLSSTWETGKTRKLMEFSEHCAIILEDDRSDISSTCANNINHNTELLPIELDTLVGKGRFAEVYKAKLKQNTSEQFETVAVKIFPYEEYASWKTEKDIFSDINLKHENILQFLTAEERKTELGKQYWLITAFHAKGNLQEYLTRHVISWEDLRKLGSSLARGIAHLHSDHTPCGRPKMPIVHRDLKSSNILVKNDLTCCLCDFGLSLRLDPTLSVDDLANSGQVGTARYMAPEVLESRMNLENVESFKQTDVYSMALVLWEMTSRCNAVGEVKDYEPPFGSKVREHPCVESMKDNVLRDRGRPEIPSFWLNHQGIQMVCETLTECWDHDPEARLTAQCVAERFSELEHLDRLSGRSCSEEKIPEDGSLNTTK

Binder: ECGLLPVGRPDRVWRLCK-{FITC′} (cysteine pairing not given here) [peptide-based TGFβ receptor II inhibitor (PTβR2I), ECGLLPVGRPDRVWRLCK-FITC]
- binding result [1]: binds
- Kd [2]: 3.4 µM
